From patent US20090280473A1 come the findings set out here.

Experiment in all cases: cell-based or functional assay
The target of test [1] is Semliki Forest virus E1 fusion protein, low pH-induced trimeric form (full-length viral E1 of cell-b (Semliki Forest virus) (UniProt P03315)).
Test [2] deals with Dengue virus 2 (DV2, strain New Guinea C) E fusion protein (Dengue virus 2) (UniProt P14340).
In test [3] the target is Dengue virus 1 (DV1, strain Western Pacific) E fusion protein (Dengue virus 1) (UniProt P17763).

In the case of “DIII (SFV E1 domain III, Met + residues 291-383) (from UniProt P03315 1106-1198)”, in test [1], the percent inhibition of SFV fusion in the FIA at ˜80 µM stood at 60 % inhibition. As for “DIIIS (SFV E1 domain III plus stem, Met + residues 291-412) (from UniProt P03315 1106-1227)”, in test [1], the inhibition of SFV fusion with BHK cells, fusion-infection assay (FIA) amounted to 6 µM. In test [2], “DV2DIIIH1 (dengue virus 2 E domain III plus helix 1 of the stem, residues 296-415) (from UniProt P14340 576-695)” registered a percent inhibition of DV2 fusion in the FIA at 50 µM of 70 % inhibition. The substance also came in with a percent inhibition of DV1 fusion in the FIA at 50 µM in test [3] of 70 % inhibition.
